{"source": "paper PMC12757075", "origin": "cited, not measured here", "target": "actin filament barbed end (Oryctolagus cuniculus) (UniProt P68135)", "data": [{"substance": "VASP (from UniProt P50552)", "values": [{"measurement": "Kd", "value": 9.2, "unit": "nM"}]}]}
